The target of the assay is T1, 4-1BB-GST fusion protein (human 4-1BB fused to glutathione-S-transferase, expressed in E. coli) (human, UniProt Q07011 24-186).
T1 construct: The order of the parts follows the printed name 4-1BB-GST; not shown: glutathione-S-transferase (GST) from the pGEX3 vector (Pharmacia)
Put plainly: ELISA, transfectant culture supernatant on 4-1BB-GST antigen; reference is 293 EBNA cultured supernatant. The method, then: The completely humanized sequence to constant region was subcloned to pcDNA, a eukaryote expressing vectors, transfected into 293EBNA cells and serial analyses i.e., ELISA and western blotting analysis were performed using by the cell medium. 4-1BB-GST was used as an antigen for ELISA and each 50 numbers of transfectant medium was used therein.
Background: An ELISA detects its analyte on a solid surface through an enzyme-linked reagent.

B1: completely humanized antibody HBBK4-75 (H2L2) (antibody, V domains shown)
VH: QVQLQQSGAEVIKPGASVKLSCKASGYTFSSYWMHWVRQAPGQGLEWIGEINPGNGHTNYNEKFKSRATLTGDTSTSTVYMELSSLRSEDTAVYYCARSFTTARAFAYWGQGTLVTVSS
VL: DIVMTQSPAFLSVTPGEKVTITCRASQTISDYLHWYQQKPDQAPKLLIKYASQSISGIPSRFSGSGSGTDFTFTISSLEAEDAATYYCQDGHSFPPTFGQGTKLEIKT
notes: the VH is the same in both; also called clone 75; HBBK4-75/pcDNA
Turning to B1, the “fold over negative control (ELISA)” value is ~15 times.
